According to paper PMC11180146 (2024):

Columns and labels:
[1] = target: T1, RNAseB, glycosylated (HM N-glycan at N34, mainly Man5 and Man6) (beef (bovine), as said of the protein …, UniProt P61823 27-150, HM N-glycan (mainly Man5 and Man6) at N34); experiment: SPR
T1 chain: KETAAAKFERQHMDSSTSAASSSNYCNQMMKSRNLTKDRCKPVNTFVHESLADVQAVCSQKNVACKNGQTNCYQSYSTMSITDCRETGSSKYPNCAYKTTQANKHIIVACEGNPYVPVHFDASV

[2] = target: RNAseB, glycosylated (HM N-glycan at N34, mainly Man5 and Man6) (beef (bovine), as said of the protein in general) (UniProt P61823); experiment: SPR; glycosylated RNAseB (Man5/6) amine-coupled to a CM5 chip on flow cell 2 (150 RU), deglycosylated RNAseB on control flow cell 1; enzyme as analyte, 120 s injection, 600 s dissociation; HBS-EP running buffer; Biacore X100

koff [1]: 0.000419 s⁻¹ | Kd [2]: 3.5 nM
B1: BT1285_(D161A-E163A), catalytically inactive variant of the GH18 endo-β-N-acetylglucosaminidase BT1285 (enzyme)
chain: MPVNQSDNNQSEVVTRSATGIKNIVYIEVNDINPLNAGSYIMDDAPFFDYVILFAANIRGVGSDATLYNNPNVQYILDHKDTLIKPLQDKGIKVLLGLLGDHTGLGFANMNSAQTEQFATAVANAVSQYGLDGVDFADAWAEYGRNGYPSGSTGSFSNLITALHNKMPGKTITVFNYGYTSELTGVNSYIDYGIYAFFNSPSWSTGFGMPNSKFAPYTINLNSAPSAASAQLYSGQVASKGYGAIGYYDLRANNIVSVLNGVAKGAFKSTCTYDGNSYPKNY
